Laboratory results from the supplement of paper PMC10567573.

B1: CLPTM1 (parent)
chain: LGCYAVYSLLYLEHKGWYSWVLSM

Variants of: B1
Assay: protein stability index of a GFP-peptide fusion (GPS, HEK-293T) (PSI 1-6); higher = more stable
Conditions: c terminus: a fixed tail appended
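Further: lentivirally expressed fusions sorted by FACS into six bins by GFP to DsRed ratio, PSI derived from sequencing read proportions per bin multiplied by bin number.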

Protein stability index: each site, then its substitutions
W17: E 2.81 | K 3.85 | A 3.3 | R 2.16 | D 2.76 | L 2.96 | G 2.14 | I 2.71 | N 4.13 | P 2.44 | F 1.55 | C 2.36
V6: S 2.76 | N 2.73 | R 2.3 | P 2.49 | T 2.61 | W 1.84
G16: M 2.67 | D 2.47 | H 3.98 | R 1.42 | V 2.84 | T 2.75 | P 2.75 | F 2 | A 4.05 | N 2.7 | E 2.88
Y11: K 2.63 | M 2.05 | W 2.68 | H 2.09 | I 3 | F 3.26 | D 2.36 | Q 3.22 | T 2.69 | P 2.2 | G 4.08 | E 3.13 | S 1.87 | N 2
L12: P 3.25 | T 2.14 | V 2.89 | W 2.4 | I 3.36 | H 2.99 | E 3.57 | K 3.11 | N 4.59 | Q 3.59 | S 2.02 | Y 2.43 | M 4.09 | G 3.12 | F 3.31 | D 2.74 | R 4.16 | C 2.68
K15: T 4.26 | G 1.81 | Y 2.57 | M 3.9 | L 3.23 | S 2.73 | I 2.89 | Q 1.25 | W 2.46 | C 2.9 | N 3.11 | A 1.32 | H 3.75 | F 2.41 | V 2.65 | P 3.92
S8: G 4.38 | H 2.55 | E 1.27 | P 3.57 | I 3.15 | W 1.43 | C 2.96 | T 2.09 | A 2.25 | K 3.64 | V 1.96 | N 4.1
H14: L 2.4 | Y 3.4 | N 2.58 | I 2.44 | M 2.53 | A 3.68 | F 3.12 | W 3.16 | T 3.37 | G 2.4 | V 2.52 | C 2.45 | S 2.43 | P 2.6 | R 2.22 | D 2.41 | Q 3.42
Y7: P 3.71 | Q 2.39 | V 3.4 | H 2.13 | M 3.54 | E 2.54 | W 3.23 | D 3.78 | K 2.19 | R 2.82 | I 3.09 | F 3.72 | N 5.04 | C 3.42
L10: I 3.43 | H 2.84 | F 3.57 | S 1.76 | K 3.39 | A 2.39 | P 2.45 | Y 2.5 | M 2.82 | C 2.87 | Q 3.9 | T 2.74 | N 3.35 | D 3.21 | G 3.1 | W 2.32 | R 1.94
L9: M 2.92 | H 1.71 | S 2.77 | P 4.54 | V 1.94 | Y 2.36 | F 4.07 | I 2.15 | E 2.13 | D 3.48 | G 1.77 | W 2.7 | C 2.03 | R 2.18 | Q 2.67 | T 1.75 | N 3.39 | K 2.65
E13: D 2.51 | A 1.11 | I 4.56 | M 2.58 | C 2.64 | Y 2.12 | P 3.78 | T 3.83 | L 3.4 | F 3.1 | G 1.95 | H 3.66
